Reference: patent publication US8992886B2, “Cyclic peptide analogues for non-invasive imaging of pancreatic beta-cells” (Board of Regents, the University of Texas System, priority 2009, dated 2015)

How the values were obtained:
in vivo = assay: in vivo; set-up: species or system Sprague-Dawley rats; settings: Sprague-Dawley, rat, iv, total radioactivity
Procedure: Given this encouraging in vitro result, the tissue distribution of both conjugates in normal Sprague-Dawley rats was examined. […] The radiolabeled compounds were diluted with saline and be injected into rats (n=4 at each time point) via the tail vein. The animal number at each time point was chosen for statistical analysis. […] At the selected post-injection time points, animals were sacrificed, and organs of interest removed, weighed, and counted. The percent injected dose per gram (% ID/g) and percent injected dose per organ (% ID/organ) was calculated by comparison to a weighed, counted standard. Pharmacokinetic parameters were estimated by using either one- or two-compartment model.

GLP-1R in pancreas = target: T1, GLP-1R in pancreas (Mus musculus, UniProt O35659); assay: Dynamic PET/CT imaging of ^64Cu-labeled peptides in normal mice; settings: mouse, in vivo
T1 sequence (O35659 22-463): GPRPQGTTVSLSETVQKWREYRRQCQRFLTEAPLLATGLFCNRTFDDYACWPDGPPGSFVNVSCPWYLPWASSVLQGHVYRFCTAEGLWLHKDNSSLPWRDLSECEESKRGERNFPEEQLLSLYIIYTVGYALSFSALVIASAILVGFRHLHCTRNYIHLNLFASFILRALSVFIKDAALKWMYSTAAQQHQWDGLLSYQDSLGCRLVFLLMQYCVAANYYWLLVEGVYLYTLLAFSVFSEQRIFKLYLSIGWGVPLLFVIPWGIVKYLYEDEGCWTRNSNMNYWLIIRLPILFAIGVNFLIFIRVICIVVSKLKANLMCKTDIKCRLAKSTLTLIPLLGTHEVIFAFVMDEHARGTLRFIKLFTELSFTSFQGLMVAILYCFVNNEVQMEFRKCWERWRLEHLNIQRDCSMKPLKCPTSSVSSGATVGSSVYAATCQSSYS
Procedure: Dynamic PET/CT scans were performed on a Siemens Inveon PET-CT multimodality system using normal male BABL/c mice (n=3 per peptide). Post-PET biodistribution was performed to verify the imaging findings.
In addition, D-Ala^8 was also introduced to prevent the degradation by DPP-IV.
FIG. 9 are graphs that show a comparison of contrast in pancreatic, liver and kidney microPET scans. […] Quantitative analysis based on microPET/CT 0-60 min dynamic scans, animal model: Normal BABL/c mice at 6-8 wks.

CC[C@H](C)[C@H](NC(=O)[C@H](Cc1ccccc1)NC(=O)[C@H](CCC(=O)O)NC(=O)[C@H](CCCCN)NC(=O)[C@H](C)NC(=O)[C@H](C)NC(=O)[C@H](CCC(N)=O)NC(=O)CNC(=O)[C@H](CCC(=O)O)NC(=O)[C@H](CC(C)C)NC(=O)[C@H](Cc1ccc(O)cc1)NC(=O)[C@H](CO)NC(=O)[C@H](CO)NC(=O)[C@@H](NC(=O)[C@H](CC(=O)O)NC(=O)[C@H](CO)NC(=O)[C@@H](NC(=O)[C@H](Cc1ccccc1)NC(=O)[C@@H](NC(=O)CNC(=O)[C@H](CCC(=O)O)NC(=O)[C@@H](C)NC(=O)[C@@H](N)Cc1c[nH]cn1)[C@@H](C)O)[C@@H](C)O)C(C)C)C(=O)N[C@@H](C)C(=O)N[C@@H](Cc1c[nH]c2ccccc12)C(=O)N[C@@H](CC(C)C)C(=O)N[C@H](C(=O)N[C@@H](CCCCN)C(=O)NCC(=O)N[C@@H](CCCNC(=N)N)C(=O)NCCCCCC(=O)N[C@@H](CSC1CC(=O)N(CCNC(=O)CN2CCN(CC(=O)O)CCN(CC(=O)O)CCN(CC(=O)O)CC2)C1=O)C(N)=O)C(C)C (stereo partly drawn) (64Cu complex, metal not drawn) [D-GLP-1, [D-Ala^8]GLP-1-Ahx-Cys]
tissue uptake at 20 min (in vivo; % ID/g blood): 0.91 ± 0.39 %ID/g
tissue uptake at 1 h (in vivo; % ID/g blood): 0.41 ± 0.07 %ID/g
tissue uptake at 4 h (in vivo; % ID/g blood): 0.45 ± 0.02 %ID/g
tissue uptake at 24 h (in vivo; % ID/g blood): 0.14 ± 0.08 %ID/g
tissue uptake at 20 min (in vivo; % ID/g fat): 0.44 ± 0.6 %ID/g
tissue uptake at 1 h (in vivo; % ID/g fat): 0.28 ± 0.4 %ID/g
tissue uptake at 4 h (in vivo; % ID/g fat): 0.96 ± 0.88 %ID/g
tissue uptake at 24 h (in vivo; % ID/g fat): 0.78 ± 0.14 %ID/g
tissue uptake at 20 min (in vivo; % ID/g heart): 0.64 ± 0.16 %ID/g
tissue uptake at 1 h (in vivo; % ID/g heart): 0.46 ± 0.21 %ID/g
tissue uptake at 4 h (in vivo; % ID/g heart): 0.15 ± 0.09 %ID/g
tissue uptake at 24 h (in vivo; % ID/g heart): 0.04 ± 0.05 %ID/g
tissue uptake at 20 min (in vivo; % ID/g kidney): 19.6 ± 0.91 %ID/g
tissue uptake at 1 h (in vivo; % ID/g kidney): 28.2 ± 5.83 %ID/g
tissue uptake at 4 h (in vivo; % ID/g kidney): 30.7 ± 9.53 %ID/g
tissue uptake at 24 h (in vivo; % ID/g kidney): 46.1 ± 10.9 %ID/g
tissue uptake at 20 min (in vivo; % ID/g large int): 0.45 ± 0.2 %ID/g
tissue uptake at 1 h (in vivo; % ID/g large int): 0.67 ± 0.7 %ID/g
tissue uptake at 4 h (in vivo; % ID/g large int): 0.77 ± 0.18 %ID/g
tissue uptake at 24 h (in vivo; % ID/g large int): 2.01 ± 0.02 %ID/g
tissue uptake at 20 min (in vivo; % ID/g liver): 2.69 ± 1.16 %ID/g
tissue uptake at 1 h (in vivo; % ID/g liver): 1.17 ± 0.45 %ID/g
tissue uptake at 4 h (in vivo; % ID/g liver): 1.56 ± 0.14 %ID/g
tissue uptake at 24 h (in vivo; % ID/g liver): 2.26 ± 0.16 %ID/g
tissue uptake at 20 min (in vivo; % ID/g lung): 4.03 ± 1.64 %ID/g
tissue uptake at 1 h (in vivo; % ID/g lung): 0.91 ± 0.12 %ID/g
tissue uptake at 4 h (in vivo; % ID/g lung): 0.77 ± 0.18 %ID/g
tissue uptake at 24 h (in vivo; % ID/g lung): 1.21 ± 0.3 %ID/g
tissue uptake at 20 min (in vivo; % ID/g muscle): 0.3 ± 0.15 %ID/g
tissue uptake at 1 h (in vivo; % ID/g muscle): 0.63 ± 0.05 %ID/g
tissue uptake at 4 h (in vivo; % ID/g muscle): 0.11 ± 0.13 %ID/g
tissue uptake at 24 h (in vivo; % ID/g muscle): 0.39 ± 0.29 %ID/g
tissue uptake at 20 min (in vivo; % ID/g pancreas): 3.58 ± 0.56 %ID/g
tissue uptake at 1 h (in vivo; % ID/g pancreas): 2.19 ± 0.98 %ID/g
tissue uptake at 4 h (in vivo; % ID/g pancreas): 1.18 ± 0.12 %ID/g
tissue uptake at 24 h (in vivo; % ID/g pancreas): 0.99 ± 0.05 %ID/g
tissue uptake at 20 min (in vivo; % ID/g small int): 1.07 ± 0.73 %ID/g
tissue uptake at 1 h (in vivo; % ID/g small int): 1.02 ± 0.75 %ID/g
tissue uptake at 4 h (in vivo; % ID/g small int): 0.5 ± 0.25 %ID/g
tissue uptake at 24 h (in vivo; % ID/g small int): 0.91 ± 0.31 %ID/g
tissue uptake at 20 min (in vivo; % ID/g spleen): 0.22 ± 0.05 %ID/g
tissue uptake at 1 h (in vivo; % ID/g spleen): 0.23 ± 0.05 %ID/g
tissue uptake at 4 h (in vivo; % ID/g spleen): 0.26 ± 0.2 %ID/g
tissue uptake at 24 h (in vivo; % ID/g spleen): 0.52 ± 0.18 %ID/g
tissue uptake at 20 min (in vivo; % ID/g stomach): 1.02 ± 0.51 %ID/g
tissue uptake at 1 h (in vivo; % ID/g stomach): 0.49 ± 0.31 %ID/g
tissue uptake at 4 h (in vivo; % ID/g stomach): 0.23 ± 0.07 %ID/g
tissue uptake at 24 h (in vivo; % ID/g stomach): 0.25 ± 0.17 %ID/g
clearance from the pancreas (GLP-1R in pancreas): < 10 min

CC[C@H](C)[C@H](NC(=O)[C@H](Cc1ccccc1)NC(=O)[C@H](CCC(=O)O)NC(=O)[C@H](CCCCN)NC(=O)[C@H](C)NC(=O)[C@H](C)NC(=O)[C@H](CCC(N)=O)NC(=O)CNC(=O)[C@H](CCC(=O)O)NC(=O)[C@H](CC(C)C)NC(=O)[C@H](Cc1ccc(O)cc1)NC(=O)[C@H](CO)NC(=O)[C@H](CO)NC(=O)[C@@H](NC(=O)[C@H](CC(=O)O)NC(=O)[C@H](CO)NC(=O)[C@@H](NC(=O)[C@H](Cc1ccccc1)NC(=O)[C@@H](NC(=O)CNC(=O)[C@H](CCC(=O)O)NC(=O)[C@H](C)NC(=O)[C@@H](N)Cc1c[nH]cn1)[C@@H](C)O)[C@@H](C)O)C(C)C)C(=O)N[C@@H](C)C(=O)N[C@@H](Cc1c[nH]c2ccccc12)C(=O)N[C@@H](CC(C)C)C(=O)N[C@H](C(=O)N[C@@H](CCCCN)C(=O)NCC(=O)N[C@@H](CCCNC(=N)N)C(=O)NCCCCCC(=O)N[C@@H](CSC1CC(=O)N(CCNC(=O)CN2CCN(CC(=O)O)CCN(CC(=O)O)CCN(CC(=O)O)CC2)C1=O)C(N)=O)C(C)C (stereo partly drawn) (64Cu complex, metal not drawn) [L-GLP-1, [Ala^8]GLP-1-Ahx-Cys]
tissue uptake at 20 min (in vivo; % ID/g blood): 0.78 ± 0.14 %ID/g
tissue uptake at 1 h (in vivo; % ID/g blood): 0.47 ± 0.03 %ID/g
tissue uptake at 4 h (in vivo; % ID/g blood): 0.62 ± 0.15 %ID/g
tissue uptake at 24 h (in vivo; % ID/g blood): 0.07 ± 0.07 %ID/g
tissue uptake at 20 min (in vivo; % ID/g fat): 0.35 ± 0.1 %ID/g
tissue uptake at 4 h (in vivo; % ID/g fat): 0.72 ± 0.57 %ID/g
tissue uptake at 24 h (in vivo; % ID/g fat): 0.01 ± 0.01 %ID/g
tissue uptake at 20 min (in vivo; % ID/g heart): 0.39 ± 0.23 %ID/g
tissue uptake at 1 h (in vivo; % ID/g heart): 0.11 ± 0.1 %ID/g
tissue uptake at 4 h (in vivo; % ID/g heart): 0.2 ± 0.06 %ID/g
tissue uptake at 20 min (in vivo; % ID/g kidney): 30.6 ± 6.76 %ID/g
tissue uptake at 1 h (in vivo; % ID/g kidney): 34.3 ± 5.42 %ID/g
tissue uptake at 4 h (in vivo; % ID/g kidney): 41.4 ± 4.98 %ID/g
tissue uptake at 24 h (in vivo; % ID/g kidney): 45.8 ± 2.94 %ID/g
tissue uptake at 20 min (in vivo; % ID/g large int): 0.19 ± 0.1 %ID/g
tissue uptake at 1 h (in vivo; % ID/g large int): 0.04 ± 0.04 %ID/g
tissue uptake at 4 h (in vivo; % ID/g large int): 0.67 ± 0.47 %ID/g
tissue uptake at 24 h (in vivo; % ID/g large int): 4.83 ± 1.16 %ID/g
tissue uptake at 20 min (in vivo; % ID/g liver): 1.13 ± 0.42 %ID/g
tissue uptake at 1 h (in vivo; % ID/g liver): 2.03 ± 0.25 %ID/g
tissue uptake at 4 h (in vivo; % ID/g liver): 3.34 ± 0.58 %ID/g
tissue uptake at 24 h (in vivo; % ID/g liver): 1.43 ± 0.21 %ID/g
tissue uptake at 20 min (in vivo; % ID/g lung): 1.92 ± 0.08 %ID/g
tissue uptake at 1 h (in vivo; % ID/g lung): 0.9 ± 0.14 %ID/g
tissue uptake at 4 h (in vivo; % ID/g lung): 1.02 ± 0.13 %ID/g
tissue uptake at 24 h (in vivo; % ID/g lung): 0.83 ± 0.18 %ID/g
tissue uptake at 20 min (in vivo; % ID/g muscle): 0.12 ± 0.01 %ID/g
tissue uptake at 24 h (in vivo; % ID/g muscle): 0.08 ± 0.1 %ID/g
tissue uptake at 20 min (in vivo; % ID/g pancreas): 0.34 ± 0.14 %ID/g
tissue uptake at 1 h (in vivo; % ID/g pancreas): 0.11 ± 0.11 %ID/g
tissue uptake at 4 h (in vivo; % ID/g pancreas): 0.4 ± 0.56 %ID/g
tissue uptake at 24 h (in vivo; % ID/g pancreas): 0.03 ± 0.06 %ID/g
tissue uptake at 20 min (in vivo; % ID/g small int): 0.38 ± 0.21 %ID/g
tissue uptake at 1 h (in vivo; % ID/g small int): 0.45 ± 0.24 %ID/g
tissue uptake at 4 h (in vivo; % ID/g small int): 0.93 ± 0.43 %ID/g
tissue uptake at 24 h (in vivo; % ID/g small int): 0.42 ± 0.16 %ID/g
tissue uptake at 20 min (in vivo; % ID/g spleen): 0.28 ± 7 %ID/g
tissue uptake at 1 h (in vivo; % ID/g spleen): 0.18 ± 0.08 %ID/g
tissue uptake at 4 h (in vivo; % ID/g spleen): 0.4 ± 0.35 %ID/g
tissue uptake at 24 h (in vivo; % ID/g spleen): 0.38 ± 0.47 %ID/g
tissue uptake at 20 min (in vivo; % ID/g stomach): 0.64 ± 0.28 %ID/g
tissue uptake at 1 h (in vivo; % ID/g stomach): 0.46 ± 0.28 %ID/g
tissue uptake at 4 h (in vivo; % ID/g stomach): 0.5 ± 0.15 %ID/g
tissue uptake at 24 h (in vivo; % ID/g stomach): 0.11 ± 0.04 %ID/g
